In PMC5159498, “IQGAP1 Interaction with RHO Family Proteins Revisited” (The Journal of Biological Chemistry, 2016):

Tests used:
Conditions in all cases: both partners purified
[1] = biological target: T1, IQGAP1 GRD1-CT (aa 863-1657) (human, UniProt P46940 863-1657); assay: fluorescence polarisation; IQGAP1 variant titrated to mGDP-bound (inactive) RHO protein (1 μM), same conditions as with mGppNHp; 30 mM Tris/HCl pH 7.5, 150 mM NaCl, 5 mM MgCl2, 3 mM DTT, 25 °C
T1 construct: human IQGAP1, GRD, RGCT and CT domains, aa 863-1657; The GST tag was cleaved 'if needed'; also called C-terminal half of IQGAP1; C-terminal 795 amino acids of IQGAP1
T1 sequence (looked up): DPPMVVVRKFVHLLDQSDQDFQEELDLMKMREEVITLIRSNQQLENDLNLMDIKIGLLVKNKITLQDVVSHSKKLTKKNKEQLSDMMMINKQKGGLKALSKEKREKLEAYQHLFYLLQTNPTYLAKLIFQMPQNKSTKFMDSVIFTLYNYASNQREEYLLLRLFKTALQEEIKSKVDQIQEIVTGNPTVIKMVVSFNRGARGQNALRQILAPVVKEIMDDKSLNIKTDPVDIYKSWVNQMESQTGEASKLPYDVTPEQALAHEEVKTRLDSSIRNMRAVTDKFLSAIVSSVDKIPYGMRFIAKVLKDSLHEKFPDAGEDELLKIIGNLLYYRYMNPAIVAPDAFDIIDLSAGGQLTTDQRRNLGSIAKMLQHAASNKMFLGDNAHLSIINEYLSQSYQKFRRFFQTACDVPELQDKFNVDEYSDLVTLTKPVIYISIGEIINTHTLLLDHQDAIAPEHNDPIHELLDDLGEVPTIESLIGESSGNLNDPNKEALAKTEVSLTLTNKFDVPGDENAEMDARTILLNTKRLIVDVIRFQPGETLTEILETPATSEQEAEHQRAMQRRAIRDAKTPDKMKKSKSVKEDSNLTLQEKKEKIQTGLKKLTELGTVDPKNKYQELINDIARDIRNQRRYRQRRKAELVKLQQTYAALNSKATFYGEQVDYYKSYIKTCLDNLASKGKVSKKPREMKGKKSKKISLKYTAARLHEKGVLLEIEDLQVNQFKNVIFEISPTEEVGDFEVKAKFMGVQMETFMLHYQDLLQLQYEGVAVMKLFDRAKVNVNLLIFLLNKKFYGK

[2] = biological target: T1, IQGAP1 GRD1-CT (aa 863-1657); assay: fluorescence polarisation; IQGAP1 variant titrated to mGppNHp-bound RHO protein (1 μM); equilibrium Kd (eKd), quadratic fit; 30 mM Tris/HCl pH 7.5, 150 mM NaCl, 5 mM MgCl2, 3 mM DTT, 25 °C
[3] = biological target: T2, IQGAP1 GRD1-RGCT wild type (aa 877-1558) (human, UniProt P46940 877-1558); assay: stopped-flow fluorometry; tGppNHp (tamra-GppNHp)-bound CDC42 or CDC42 Q61L (0.2 μM) rapidly mixed with IQGAP1 variant (2-10 μM GRD1-CT for Q61L); Kd = koff/kon; 30 mM Tris-HCl pH 7.5, 10 mM KH2PO4/K2HPO4, 5 mM MgCl2, 3 mM DTT
T2 construct: human IQGAP1, GRD and RGCT domains, lacks the last 99 amino acids, aa 877-1558; also called GRD1-RGCT^WT; IQGAP1^877-1558
T2 sequence (looked up): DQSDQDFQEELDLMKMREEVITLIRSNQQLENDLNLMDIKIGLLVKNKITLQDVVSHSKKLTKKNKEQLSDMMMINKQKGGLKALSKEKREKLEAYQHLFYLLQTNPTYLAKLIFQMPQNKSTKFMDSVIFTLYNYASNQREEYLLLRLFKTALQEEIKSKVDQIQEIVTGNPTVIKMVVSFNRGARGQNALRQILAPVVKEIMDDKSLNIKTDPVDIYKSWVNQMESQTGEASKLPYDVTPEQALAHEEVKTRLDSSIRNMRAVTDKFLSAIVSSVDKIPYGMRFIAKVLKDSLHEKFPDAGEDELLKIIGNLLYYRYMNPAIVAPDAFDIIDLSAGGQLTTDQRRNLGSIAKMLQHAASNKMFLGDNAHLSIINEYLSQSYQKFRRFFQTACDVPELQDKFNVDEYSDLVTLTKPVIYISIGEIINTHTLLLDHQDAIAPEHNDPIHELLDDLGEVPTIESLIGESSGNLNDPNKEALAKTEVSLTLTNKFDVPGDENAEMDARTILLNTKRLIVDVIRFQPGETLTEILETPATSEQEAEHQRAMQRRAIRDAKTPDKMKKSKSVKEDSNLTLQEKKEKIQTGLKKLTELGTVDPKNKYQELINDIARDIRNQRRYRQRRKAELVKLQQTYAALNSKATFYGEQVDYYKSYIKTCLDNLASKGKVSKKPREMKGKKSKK

- Kd [1]: 95.1 µM
- Kd [2]: 3.4 µM
- Kd [3]: 1450 nM
B1: CDC42 (aa 1-178) (domain or fragment)
chain: not shown
notes: human CDC42, C-terminally truncated, aa 1-178; Loaded non-covalently with mGppNHp, tGppNHp, mGDP or non-fluorescent GppNHp; the nucleotide is named in the format of each assay; also called CDC42^WT; CDC42-mGppNHp
